In article doi:10.64898/2025.12.24.696318, “TRAF6 coiled-coil domain mediates its trimerization” (bioRxiv, 2025):

Target: the molecule itself
Assay: SEC-MALS; Superdex 200 Increase 10/300; 20 mM Tris-HCl pH 8.0, 150 mM NaCl; 0.5 mL/min; His6-TRAF6-CC at 1 and 6.57 mg/ml, tagless TRAF6-CC at 0.934 and 1.57 mg/ml; calibrated with BSA

Protein | stoichiometry N
His6-THROM-TRAF6-CC (human TRAF6 coiled-coil domain, residues 288-348, with N-terminal His6 tag and thrombin cleavage site) (domain or fragment, UniProt Q9Y4K3 288-348, looked up, TRAF6, human, UniProt Q9Y4K3, coiled-coil domain, residues Y288-Q348; Cloned in pET28a between NdeI and XhoI; a thrombin cleavage site lies between the His6 tag and the domain; Printed mass of the tagged monomer is 9.61 kDa; also called His6-TRAF6-CC; hexahistidine-tagged TRAF6-CC; source: E. coli BL21-CodonPlus (DE3) RIPL, purified (Ni-NTA, SEC); not shown: His6, N-terminal, kept) YISEVRNFQETIHQLEGRLVRQDHQIRELTAKMETQSMYVSELKRTIRTLEDKVAEIEAQQ | 3
tagless TRAF6-CC (human TRAF6 coiled-coil domain, residues 288-348, His6 tag removed by thrombin) (domain or fragment, UniProt Q9Y4K3 288-348, looked up, TRAF6, human, UniProt Q9Y4K3, coiled-coil domain, residues Y288-Q348; Made from m1 by bovine thrombin; source: E. coli BL21-CodonPlus (DE3) RIPL, purified (Ni-NTA, thrombin cleavage, reverse Ni-NTA, SEC); not shown: His6, N-terminal, cleaved) YISEVRNFQETIHQLEGRLVRQDHQIRELTAKMETQSMYVSELKRTIRTLEDKVAEIEAQQ | 3
